# Measurements taken from paper doi:10.1101/2022.06.01.494398, “Herpes simplex virus 1 protein pUL21 stimulates cellular ceramide transport by activating CERT” (bioRxiv, 2022).
# T1: pUL21-H6 (HSV-1, UniProt P10205 1-535)
# T1 construct: HSV-1 tegument protein pUL21; The tag's end is read from the name pUL21-H6; also called wild-type pUL21; full-length pUL21; source: E. coli T7 Express lysY/Iq, purified (Ni-NTA, SEC); not shown: H6, C-terminal, kept
# T1 sequence: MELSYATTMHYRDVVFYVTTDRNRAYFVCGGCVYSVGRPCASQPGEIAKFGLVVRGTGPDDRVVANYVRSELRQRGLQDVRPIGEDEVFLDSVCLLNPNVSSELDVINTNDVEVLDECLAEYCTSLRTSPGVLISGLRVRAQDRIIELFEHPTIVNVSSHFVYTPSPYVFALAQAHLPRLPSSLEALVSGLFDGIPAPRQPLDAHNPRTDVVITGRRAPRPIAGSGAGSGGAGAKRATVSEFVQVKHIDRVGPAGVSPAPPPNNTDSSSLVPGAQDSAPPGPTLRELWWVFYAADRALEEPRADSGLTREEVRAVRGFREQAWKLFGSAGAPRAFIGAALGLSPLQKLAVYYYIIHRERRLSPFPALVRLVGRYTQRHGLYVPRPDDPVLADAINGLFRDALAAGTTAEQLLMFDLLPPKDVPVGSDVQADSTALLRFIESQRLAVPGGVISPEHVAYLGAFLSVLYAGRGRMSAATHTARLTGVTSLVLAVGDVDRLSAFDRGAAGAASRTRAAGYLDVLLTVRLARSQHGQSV
# T2: pUL21^V382E-H6 (HSV-1, UniProt P10205 1-535, V382E)
# T2 construct: HSV-1 tegument protein pUL21 with V382E; The tag's end is read from the name pUL21^V382E-H6; also called H6-pUL21^V382E; V382E pUL21-H6; source: E. coli T7 Express lysY/Iq, purified (Ni-NTA, SEC); not shown: H6, C-terminal, kept
# T2 sequence: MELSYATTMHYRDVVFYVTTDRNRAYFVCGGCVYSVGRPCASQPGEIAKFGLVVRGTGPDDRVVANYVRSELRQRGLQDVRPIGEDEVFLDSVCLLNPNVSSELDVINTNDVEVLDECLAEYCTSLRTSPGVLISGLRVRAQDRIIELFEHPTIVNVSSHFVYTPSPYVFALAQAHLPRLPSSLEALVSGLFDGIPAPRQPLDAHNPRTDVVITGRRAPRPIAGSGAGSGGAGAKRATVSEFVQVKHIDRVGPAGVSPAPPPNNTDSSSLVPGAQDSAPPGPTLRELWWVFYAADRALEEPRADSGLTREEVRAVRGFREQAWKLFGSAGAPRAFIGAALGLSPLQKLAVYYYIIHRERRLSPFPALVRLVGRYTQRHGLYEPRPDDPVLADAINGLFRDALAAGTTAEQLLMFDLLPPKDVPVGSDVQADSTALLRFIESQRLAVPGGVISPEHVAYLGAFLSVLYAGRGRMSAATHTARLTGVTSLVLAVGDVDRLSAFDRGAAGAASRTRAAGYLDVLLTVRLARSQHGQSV
# T3: H6-pUL21C (HSV-1, UniProt P10205 275-535)
# T3 construct: HSV-1 pUL21 C-terminal domain, amino acids 275-535; In pOPTH; N-terminal MAH6QD and C-terminal HGQSV are missing from the crystal structure 5ED7 and were modelled; also called C-terminal domain of pUL21; source: E. coli T7 Express lysY/Iq, purified (Ni-NTA, SEC); not shown: MAH6, N-terminal, kept
# T3 sequence: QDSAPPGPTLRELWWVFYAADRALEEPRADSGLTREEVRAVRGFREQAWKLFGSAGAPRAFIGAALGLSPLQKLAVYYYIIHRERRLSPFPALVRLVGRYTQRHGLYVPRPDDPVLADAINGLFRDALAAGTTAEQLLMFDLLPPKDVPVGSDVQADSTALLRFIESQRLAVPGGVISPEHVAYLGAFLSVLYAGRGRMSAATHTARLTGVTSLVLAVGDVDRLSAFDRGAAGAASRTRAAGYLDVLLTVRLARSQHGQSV
# T4: H6-pUL21C (HSV-1, UniProt P10205 275-535)
# T4 chain: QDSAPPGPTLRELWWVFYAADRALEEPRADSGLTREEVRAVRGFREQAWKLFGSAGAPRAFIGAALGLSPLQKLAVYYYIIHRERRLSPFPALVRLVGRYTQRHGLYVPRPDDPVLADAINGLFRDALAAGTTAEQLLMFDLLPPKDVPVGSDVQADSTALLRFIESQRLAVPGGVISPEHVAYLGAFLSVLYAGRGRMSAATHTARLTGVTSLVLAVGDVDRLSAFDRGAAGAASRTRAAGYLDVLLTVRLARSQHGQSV
# T5: StrepII-CERTL^S132A (human, UniProt Q9Y5P4-1 1-624, S132A)
# T5 sequence: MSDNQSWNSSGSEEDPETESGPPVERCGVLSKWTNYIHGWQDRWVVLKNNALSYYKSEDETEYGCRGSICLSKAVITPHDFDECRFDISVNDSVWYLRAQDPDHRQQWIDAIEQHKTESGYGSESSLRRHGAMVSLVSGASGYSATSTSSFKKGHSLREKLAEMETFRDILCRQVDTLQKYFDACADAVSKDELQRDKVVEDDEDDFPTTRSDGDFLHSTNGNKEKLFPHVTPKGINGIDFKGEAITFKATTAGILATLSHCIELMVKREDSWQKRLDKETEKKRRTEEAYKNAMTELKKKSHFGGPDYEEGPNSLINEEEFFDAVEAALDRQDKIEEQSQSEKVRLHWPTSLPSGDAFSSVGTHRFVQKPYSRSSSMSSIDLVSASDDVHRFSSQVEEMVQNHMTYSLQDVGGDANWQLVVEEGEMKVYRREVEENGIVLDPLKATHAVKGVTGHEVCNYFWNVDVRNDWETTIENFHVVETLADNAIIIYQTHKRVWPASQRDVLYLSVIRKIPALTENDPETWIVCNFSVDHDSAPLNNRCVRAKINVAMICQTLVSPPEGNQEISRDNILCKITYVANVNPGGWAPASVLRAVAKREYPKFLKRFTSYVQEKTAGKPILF
# B1: pUL21-H6 (natural protein)
# chain: MELSYATTMHYRDVVFYVTTDRNRAYFVCGGCVYSVGRPCASQPGEIAKFGLVVRGTGPDDRVVANYVRSELRQRGLQDVRPIGEDEVFLDSVCLLNPNVSSELDVINTNDVEVLDECLAEYCTSLRTSPGVLISGLRVRAQDRIIELFEHPTIVNVSSHFVYTPSPYVFALAQAHLPRLPSSLEALVSGLFDGIPAPRQPLDAHNPRTDVVITGRRAPRPIAGSGAGSGGAGAKRATVSEFVQVKHIDRVGPAGVSPAPPPNNTDSSSLVPGAQDSAPPGPTLRELWWVFYAADRALEEPRADSGLTREEVRAVRGFREQAWKLFGSAGAPRAFIGAALGLSPLQKLAVYYYIIHRERRLSPFPALVRLVGRYTQRHGLYVPRPDDPVLADAINGLFRDALAAGTTAEQLLMFDLLPPKDVPVGSDVQADSTALLRFIESQRLAVPGGVISPEHVAYLGAFLSVLYAGRGRMSAATHTARLTGVTSLVLAVGDVDRLSAFDRGAAGAASRTRAAGYLDVLLTVRLARSQHGQSV
# How the values were obtained:
# pUL21-H6 [1] = target: B1; assay: ITC; hyperphosphorylated CERTL; representative titration
# pUL21-H6 [2] = target: T1, pUL21-H6; assay: ITC; 25°C, 20 mM Tris pH 8.5, 500 mM NaCl, 0.5 mM TCEP; CERTL forms or miniCERTL (about 190-380 μM) titrated into pUL21 forms (about 20-33 μM); one-site binding model; details: both partners purified
# pUL21-H6 [3] = target: B1; assay: ITC; hyperphosphorylated CERTL; mean of 3
# [4] = target: the molecule itself; assay: SEC-MALS; Superose 6 increase 10/300 GL, 20 mM Tris pH 8.5, 500 mM NaCl, 0.5 mM TCEP; samples injected at 2 mg/mL
# pUL21-H6 [5] = target: B1; assay: ITC; mean of 6
# pUL21^V382E-H6 = target: T2, pUL21^V382E-H6; assay: ITC; 25°C, 20 mM Tris pH 8.5, 500 mM NaCl, 0.5 mM TCEP; CERTL forms or miniCERTL (about 190-380 μM) titrated into pUL21 forms (about 20-33 μM); one-site binding model; details: both partners purified
# H6-pUL21C [6] = target: T3, H6-pUL21C; assay: as above; details: both partners purified
# H6-pUL21C [7] = target: T4, H6-pUL21C; assay: ITC; representative titration
# pUL21-H6 [8] = target: B1; assay: ITC; representative titration
# StrepII-CERTL^S132A [9] = target: T5, StrepII-CERTL^S132A; assay: ITC; representative titration
# StrepII-CERTL^S132A [10] = target: T5, StrepII-CERTL^S132A; assay: ITC; mean of 2
binder,measurement,setting,value
"StrepII-CERTL^P (hyperphosphorylated StrepII-tagged CERTL) (natural protein, human, UniProt Q9Y5P4-1 1-624, looked up, hyperphosphorylated; sites not given, human CERTL, synthetic gene, UniProt Q9Y5P4-1; Observed mass by SEC-MALS approaches that of a trimer; not shown: StrepII, N-terminal, kept) MSDNQSWNSSGSEEDPETESGPPVERCGVLSKWTNYIHGWQDRWVVLKNNALSYYKSEDETEYGCRGSICLSKAVITPHDFDECRFDISVNDSVWYLRAQDPDHRQQWIDAIEQHKTESGYGSESSLRRHGSMVSLVSGASGYSATSTSSFKKGHSLREKLAEMETFRDILCRQVDTLQKYFDACADAVSKDELQRDKVVEDDEDDFPTTRSDGDFLHSTNGNKEKLFPHVTPKGINGIDFKGEAITFKATTAGILATLSHCIELMVKREDSWQKRLDKETEKKRRTEEAYKNAMTELKKKSHFGGPDYEEGPNSLINEEEFFDAVEAALDRQDKIEEQSQSEKVRLHWPTSLPSGDAFSSVGTHRFVQKPYSRSSSMSSIDLVSASDDVHRFSSQVEEMVQNHMTYSLQDVGGDANWQLVVEEGEMKVYRREVEENGIVLDPLKATHAVKGVTGHEVCNYFWNVDVRNDWETTIENFHVVETLADNAIIIYQTHKRVWPASQRDVLYLSVIRKIPALTENDPETWIVCNFSVDHDSAPLNNRCVRAKINVAMICQTLVSPPEGNQEISRDNILCKITYVANVNPGGWAPASVLRAVAKREYPKFLKRFTSYVQEKTAGKPILF",Kd,pUL21-H6 [1],554 nM
same,stoichiometry N,pUL21-H6 [2],0.74
same,Kd,pUL21-H6 [3],773 nM
same,stoichiometry N,[4],~3
"StrepII-CERTL^S132A (natural protein, human, UniProt Q9Y5P4-1 1-624, looked up, human CERTL, synthetic gene, UniProt Q9Y5P4-1, with S132A; Hypophosphorylated: S132 cannot be phosphorylated to start the phosphorylation cascade of the serine-rich motif; also called constitutively hypophosphorylated form of CERTL; source: stably transfected Freestyle 293F cells, doxycycline-induced, purified (StrepTrap HP, Superose 6 SEC); not shown: StrepII, N-terminal, kept) MSDNQSWNSSGSEEDPETESGPPVERCGVLSKWTNYIHGWQDRWVVLKNNALSYYKSEDETEYGCRGSICLSKAVITPHDFDECRFDISVNDSVWYLRAQDPDHRQQWIDAIEQHKTESGYGSESSLRRHGAMVSLVSGASGYSATSTSSFKKGHSLREKLAEMETFRDILCRQVDTLQKYFDACADAVSKDELQRDKVVEDDEDDFPTTRSDGDFLHSTNGNKEKLFPHVTPKGINGIDFKGEAITFKATTAGILATLSHCIELMVKREDSWQKRLDKETEKKRRTEEAYKNAMTELKKKSHFGGPDYEEGPNSLINEEEFFDAVEAALDRQDKIEEQSQSEKVRLHWPTSLPSGDAFSSVGTHRFVQKPYSRSSSMSSIDLVSASDDVHRFSSQVEEMVQNHMTYSLQDVGGDANWQLVVEEGEMKVYRREVEENGIVLDPLKATHAVKGVTGHEVCNYFWNVDVRNDWETTIENFHVVETLADNAIIIYQTHKRVWPASQRDVLYLSVIRKIPALTENDPETWIVCNFSVDHDSAPLNNRCVRAKINVAMICQTLVSPPEGNQEISRDNILCKITYVANVNPGGWAPASVLRAVAKREYPKFLKRFTSYVQEKTAGKPILF",stoichiometry N,pUL21-H6 [2],1
same,stoichiometry N,[4],~3
"H6-miniCERTL (domain or fragment, human, UniProt Q9Y5P4-1 20-131, looked up, human CERTL (UniProt Q9Y5P4-1), residues 20-131: PH domain without its first 19 residues and the start of the middle region; human CERTL (UniProt Q9Y5P4-1), residues 351-624: the end of the middle region and the STARTL domain; joined directly to residue 131 (MR residues 132-350 left out); Cloned into pOPTH, which encodes the N-terminal MAH6 tag; source: E. coli T7 Express lysY/Iq, purified …) SGPPVERCGVLSKWTNYIHGWQDRWVVLKNNALSYYKSEDETEYGCRGSICLSKAVITPHDFDECRFDISVNDSVWYLRAQDPDHRQQWIDAIEQHKTESGYGSESSLRRHGTSLPSGDAFSSVGTHRFVQKPYSRSSSMSSIDLVSASDDVHRFSSQVEEMVQNHMTYSLQDVGGDANWQLVVEEGEMKVYRREVEENGIVLDPLKATHAVKGVTGHEVCNYFWNVDVRNDWETTIENFHVVETLADNAIIIYQTHKRVWPASQRDVLYLSVIRKIPALTENDPETWIVCNFSVDHDSAPLNNRCVRAKINVAMICQTLVSPPEGNQEISRDNILCKITYVANVNPGGWAPASVLRAVAKREYPKFLKRFTSYVQEKTAGKPILF",Kd,pUL21-H6 [5],1040 nM
same,fold reduction of binding affinity against wild-type pUL21,pUL21^V382E-H6,~8 fold
same,Kd,H6-pUL21C [6],4300 nM
same,Kd,H6-pUL21C [7],3150 nM
same,Kd,pUL21-H6 [8],879 nM
B1,Kd,StrepII-CERTL^S132A [9],460 nM
same,Kd,StrepII-CERTL^S132A [10],642 nM
